The record followed here is paper PMC13036776, “Structural and Kinetic Basis for the Rational Design of Next-Generation β‑Lactamase Inhibitors” (Journal of Medicinal Chemistry, 2026).

Usually Km stands for the concentration of substrate that gives half-maximal velocity. Broadly, the Vmax is the top rate of the reaction or transport when substrate is in excess. The kcat is the number of substrate molecules converted per active site and unit of time at saturation. One may read the kcat/Km as the turnover number divided by the Michaelis constant.

In the series the test system is O=C(Cc1cccs1)N[C@@H]1C(=O)N2C(C(=O)O)=C(/C=C/c3ccc([N+](=O)[O-])cc3[N+](=O)[O-])CS[C@H]12. As to the kind of experiment: purified protein. The conditions noted are these: active site, catalytic S64 acylation (acyl-enzyme), pH 7.2. The format is biochemical, Pseudomonas aeruginosa.

Turning to “PDC-3 (Pseudomonas-derived cephalosporinase-3, class C β-lactamase AmpC) (Pseudomonas aeruginosa PAO1)”, for the setting “general base K67, R349 anchor”, the Km amounted to 28 ± 1 µM, the Vmax was 82.2 µM/min, the kcat is 152 ± 15 s⁻¹ and the kcat/Km amounted to 5.4e+06 ± 500000 M⁻¹ s⁻¹.

As for “PDC-3 (Pseudomonas-derived cephalosporinase-3, class C β-lactamase AmpC) (Pseudomonas aeruginosa PAO1; R376A/T105A)”, under “general base K67”, the Km is 10.1 ± 1.5 µM, the Vmax turned out to be 55.8 µM/min, the kcat stood at 85 ± 3 s⁻¹ and the kcat/Km is 8.4e+06 ± 1.3e+06 M⁻¹ s⁻¹.
